Experimental data as given in patent US20230265151A1, “GIP/GLP1 CO-AGONIST COMPOUNDS” (priority 2020, published 2023).
*1 amine or outer side, *2 acyl side, *3 side chain or, on linkers, in order; H or OH if unused. Where no end group is shown, it is not given here. Side-chain parts run from the residue outwards. [ ]: non-standard residue; d: D form. The star is where a group is joined. αMePhe(2-F) = C[C@](N)(Cc1ccccc1F)C(=O)O; γGlu = O=C(O)[C@H](CCC(=O)[*:2])N[*:1]; C14 diacid = O=C(O)CCCCCCCCCCCCC(=O)*; αMeY = C[C@](N)(Cc1ccc(O)cc1)C(=O)O; αMeF = C[C@](N)(Cc1ccccc1)C(=O)O; αMeL = CC(C)C[C@](C)(N)C(=O)O; Orn = NCCC[C@H](N)C(=O)O; AEEA = NCCOCCOCC(=O)O; Aib = CC(C)(N)C(=O)O

T1: human GIP receptor (human, UniProt P48546 22-466)
T1 sequence (looked up): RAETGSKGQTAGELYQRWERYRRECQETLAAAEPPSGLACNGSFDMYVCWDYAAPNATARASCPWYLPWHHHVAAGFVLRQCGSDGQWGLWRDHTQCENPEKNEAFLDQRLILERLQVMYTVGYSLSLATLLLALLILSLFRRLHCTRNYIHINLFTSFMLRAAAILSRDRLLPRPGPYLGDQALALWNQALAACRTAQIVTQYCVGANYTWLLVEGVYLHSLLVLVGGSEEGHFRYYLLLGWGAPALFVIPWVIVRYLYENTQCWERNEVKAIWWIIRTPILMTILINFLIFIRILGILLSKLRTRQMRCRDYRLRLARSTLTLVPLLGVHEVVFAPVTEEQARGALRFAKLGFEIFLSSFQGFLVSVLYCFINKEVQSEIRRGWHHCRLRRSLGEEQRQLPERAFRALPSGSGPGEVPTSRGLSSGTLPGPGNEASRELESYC


Key:
Test in all cases: cell-based or functional assay
human glucagon receptor = human glucagon receptor (human, UniProt P47871 26-477)
human GIP receptor = target: T1, human GIP receptor
human GLP-1 receptor = human GLP-1 receptor (human, UniProt P43220 24-463)

Binder	EC50, cAMP (human glucagon receptor)	EC50, cAMP (human GIP receptor)	Emax, cAMP (human GIP receptor)	EC50, cAMP (human GLP-1 receptor)	Emax, cAMP (human GLP-1 receptor)
Y[Aib]EGT[αMePhe(2-F)]TSDK([AEEA-AEEA-γGlu-C14 diacid])SI[αMeL]LD[Orn]IAQ[Aib]E[αMeF]I[dE][αMeY]LIK([AEEA-AEEA-γGlu-C14 diacid])GGPSSGAPPPS-NH2 (N-terminus assumed; SMILES CC[C@H](C)[C@H](NC(=O)[C@H](CCCN)NC(=O)[C@H](CC(=O)O)NC(=O)[C@H](CC(C)C)NC(=O)[C@](C)(CC(C)C)NC(=O)[C@@H](NC(=O)[C@H](CO)NC(=O)[C@H](CCCCNC(=O)COCCOCCNC(=O)COCCOCCNC(=O)CC[C@H](NC(=O)CCCCCCCCCCCCC(=O)O)C(=O)O)NC(=O)[C@H](CC(=O)O)NC(=O)[C@H](CO)NC(=O)[C@@H](NC(=O)[C@](C)(Cc1ccccc1F)NC(=O)[C@@H](NC(=O)CNC(=O)[C@H](CCC(=O)O)NC(=O)C(C)(C)NC(=O)[C@@H](N)Cc1ccc(O)cc1)[C@@H](C)O)[C@@H](C)O)[C@@H](C)CC)C(=O)N[C@@H](C)C(=O)N[C@@H](CCC(N)=O)C(=O)NC(C)(C)C(=O)N[C@@H](CCC(=O)O)C(=O)N[C@@](C)(Cc1ccccc1)C(=O)N[C@H](C(=O)N[C@H](CCC(=O)O)C(=O)N[C@@](C)(Cc1ccc(O)cc1)C(=O)N[C@@H](CC(C)C)C(=O)N[C@H](C(=O)N[C@@H](CCCCNC(=O)COCCOCCNC(=O)COCCOCCNC(=O)CC[C@H](NC(=O)CCCCCCCCCCCCC(=O)O)C(=O)O)C(=O)NCC(=O)NCC(=O)N1CCC[C@H]1C(=O)N[C@@H](CO)C(=O)N[C@@H](CO)C(=O)NCC(=O)N[C@@H](C)C(=O)N1CCC[C@H]1C(=O)N1CCC[C@H]1C(=O)N1CCC[C@H]1C(=O)N[C@@H](CO)C(N)=O)[C@@H](C)CC)[C@@H](C)CC) [Example 111]	> 9950 nM	0.0202 nM	76.1%	2.28 nM	121%
YXEGTXTSDXXIXLDXKAQXEFIKXLIEGGPSSGAPPPS (Aib2, αMeF(2F)6, 4Pal10, Aib11, αMeL13, Orn16, Aib20, αMeY25, K17 and K24: K(AEEA2-(γ-Glu)-CO-(CH2)12-CO2H), C-terminal NH2) [Example 113]	> 9950 nM	0.0331 nM	97.9%	0.291 nM	
YXEGTXTSDXXIXLDXKAQXEXIKXLIEGGPSSGAPPPS (Aib2, αMeF(2F)6, 4Pal10, Aib11, αMeL13, Orn16, Aib20, αMeF22, αMeY25, K17 and K24: K(AEEA2-(γ-Glu)-CO-(CH2)12-CO2H), C-terminal NH2) [Example 117]	> 9950 nM	0.0352 nM	96.4%	5.6 nM	98.2%
YXEGTXTSDXSIXLDXKAQXEFIKXLIEGGPSSGAPPPS (Aib2, αMeF(2F)6, Ac5c10, αMeL13, Orn16, Aib20, αMeY25, K17 and K24: K(AEEA2-(γ-Glu)-CO-(CH2)12-CO2H), C-terminal NH2) [Example 116]	> 9950 nM	0.137 nM	115%	0.197 nM	
YXEGTXTSDXSIXLDXKAQXEFIXXLIEGGKSSGAPPPS (Aib2, αMeF(2F)6, 4Pal10, αMeL13, Orn16, Aib20, D-Glu24, αMeY25, K17 and K31: K(AEEA-(γ-Glu)-CO-(CH2)12-CO2H), C-terminal NH2) [Example 11]	> 9950 nM	0.0135 nM		0.511 nM	
YXEGTXTSDVSIXLDXKAQXEFIKXLIEGGPSSGAPPPS (Aib2, αMeF(2F)6, αMeL13, Orn16, Aib20, αMeY25, K17 and K24: K(AEEA2-(γ-Glu)-CO-(CH2)12-CO2H), C-terminal NH2) [Example 114]	> 9950 nM	0.0613 nM	93.8%	0.176 nM	91.7%
Y[Aib]EGT[αMePhe(2-F)]TSDV[Aib]I[αMeL]LD[Orn]K([AEEA-AEEA-γGlu-C14 diacid])AQ[Aib]EFIK([AEEA-AEEA-γGlu-C14 diacid])[αMeY]LIEGGPSSGAPPPS-NH2 [Example 115]	> 9950 nM	0.103 nM		0.16 nM	91.6%
Y[Aib]EGT[αMePhe(2-F)]TSDK([AEEA-AEEA-γGlu-C14 diacid])SI[αMeL]LD[Orn]IAQ[Aib]EFI[dE][αMeY]LIEGGK([AEEA-AEEA-γGlu-C14 diacid])SSGAPPPS-NH2 (N-terminus assumed; SMILES CC[C@H](C)[C@H](NC(=O)[C@H](CCCN)NC(=O)[C@H](CC(=O)O)NC(=O)[C@H](CC(C)C)NC(=O)[C@](C)(CC(C)C)NC(=O)[C@@H](NC(=O)[C@H](CO)NC(=O)[C@H](CCCCNC(=O)COCCOCCNC(=O)COCCOCCNC(=O)CC[C@H](NC(=O)CCCCCCCCCCCCC(=O)O)C(=O)O)NC(=O)[C@H](CC(=O)O)NC(=O)[C@H](CO)NC(=O)[C@@H](NC(=O)[C@](C)(Cc1ccccc1F)NC(=O)[C@@H](NC(=O)CNC(=O)[C@H](CCC(=O)O)NC(=O)C(C)(C)NC(=O)[C@@H](N)Cc1ccc(O)cc1)[C@@H](C)O)[C@@H](C)O)[C@@H](C)CC)C(=O)N[C@@H](C)C(=O)N[C@@H](CCC(N)=O)C(=O)NC(C)(C)C(=O)N[C@@H](CCC(=O)O)C(=O)N[C@@H](Cc1ccccc1)C(=O)N[C@H](C(=O)N[C@H](CCC(=O)O)C(=O)N[C@@](C)(Cc1ccc(O)cc1)C(=O)N[C@@H](CC(C)C)C(=O)N[C@H](C(=O)N[C@@H](CCC(=O)O)C(=O)NCC(=O)NCC(=O)N[C@@H](CCCCNC(=O)COCCOCCNC(=O)COCCOCCNC(=O)CC[C@H](NC(=O)CCCCCCCCCCCCC(=O)O)C(=O)O)C(=O)N[C@@H](CO)C(=O)N[C@@H](CO)C(=O)NCC(=O)N[C@@H](C)C(=O)N1CCC[C@H]1C(=O)N1CCC[C@H]1C(=O)N1CCC[C@H]1C(=O)N[C@@H](CO)C(N)=O)[C@@H](C)CC)[C@@H](C)CC) [Example 108]	> 9950 nM	0.0249 nM	85.2%	0.701 nM	97.6%
Y[Aib]EGT[αMePhe(2-F)]TSDV[Aib]I[αMeL]LD[Orn]K([AEEA-AEEA-γGlu-C14 diacid])AQ[Aib]E[αMeF]IK([AEEA-AEEA-γGlu-C14 diacid])[αMeY]LIEGGPSSGAPPPS-NH2 [Example 119]	> 9950 nM	0.0863 nM		0.351 nM	99.4%
YXEGTXTSDKSIXLDXIAQXKXIXXLIEGGPSSGAPPPS (Aib2, αMeF(2F)6, αMeL13, Orn16, Aib20, αMeF22, D-Glu24, αMeY25, K10 and K21: K(AEEA2-(γ-Glu)-CO-(CH2)12-CO2H), C-terminal NH2) [Example 109]	> 9950 nM	0.0236 nM	84.8%	0.846 nM	
YXEGTXTSDVSIXLDXKAQXEXIKXLIEGGPSSGAPPPS (Aib2, αMeF(2F)6, αMeL13, Orn16, Aib20, αMeF22, αMeY25, K17 and K24: K(AEEA2-(γ-Glu)-CO-(CH2)12-CO2H), C-terminal NH2) [Example 118]	> 9950 nM	0.0547 nM	94.7%	0.437 nM	
YXEGTXTSDXSIXLDXKAQXEXIKXLIEGGPSSGAPPPS (Aib2, αMeF(2F)6, Ac5c10, αMeL13, Orn16, Aib20, αMeF22, αMeY25, K17 and K24: K(AEEA2-(γ-Glu)-CO-(CH2)12-CO2H), C-terminal NH2) [Example 120]	> 9950 nM	0.0866 nM		1.43 nM	
Y[Aib]EGT[αMePhe(2-F)]TSDK([AEEA-AEEA-γGlu-C14 diacid])SI[αMeL]LD[Orn]IAQ[Aib]E[αMeF]IK([AEEA-AEEA-γGlu-C14 diacid])[αMeY]LIEGGPSSGAPPPS-NH2 [Example 110]	> 9950 nM	0.0417 nM		1.43 nM	98.8%
Y[Aib]EGT[αMePhe(2-F)]TSDK([AEEA-AEEA-γGlu-C14 diacid])SI[αMeL]LD[Orn]IAQ[Aib]E[αMeF]I[dE][αMeY]LIEGGK([AEEA-AEEA-γGlu-C14 diacid])SSGAPPPS-NH2 (N-terminus assumed; SMILES CC[C@H](C)[C@H](NC(=O)[C@H](CCCN)NC(=O)[C@H](CC(=O)O)NC(=O)[C@H](CC(C)C)NC(=O)[C@](C)(CC(C)C)NC(=O)[C@@H](NC(=O)[C@H](CO)NC(=O)[C@H](CCCCNC(=O)COCCOCCNC(=O)COCCOCCNC(=O)CC[C@H](NC(=O)CCCCCCCCCCCCC(=O)O)C(=O)O)NC(=O)[C@H](CC(=O)O)NC(=O)[C@H](CO)NC(=O)[C@@H](NC(=O)[C@](C)(Cc1ccccc1F)NC(=O)[C@@H](NC(=O)CNC(=O)[C@H](CCC(=O)O)NC(=O)C(C)(C)NC(=O)[C@@H](N)Cc1ccc(O)cc1)[C@@H](C)O)[C@@H](C)O)[C@@H](C)CC)C(=O)N[C@@H](C)C(=O)N[C@@H](CCC(N)=O)C(=O)NC(C)(C)C(=O)N[C@@H](CCC(=O)O)C(=O)N[C@@](C)(Cc1ccccc1)C(=O)N[C@H](C(=O)N[C@H](CCC(=O)O)C(=O)N[C@@](C)(Cc1ccc(O)cc1)C(=O)N[C@@H](CC(C)C)C(=O)N[C@H](C(=O)N[C@@H](CCC(=O)O)C(=O)NCC(=O)NCC(=O)N[C@@H](CCCCNC(=O)COCCOCCNC(=O)COCCOCCNC(=O)CC[C@H](NC(=O)CCCCCCCCCCCCC(=O)O)C(=O)O)C(=O)N[C@@H](CO)C(=O)N[C@@H](CO)C(=O)NCC(=O)N[C@@H](C)C(=O)N1CCC[C@H]1C(=O)N1CCC[C@H]1C(=O)N1CCC[C@H]1C(=O)N[C@@H](CO)C(N)=O)[C@@H](C)CC)[C@@H](C)CC) [Example 112]	> 9950 nM	0.0229 nM	93.6%	2.26 nM	
